Consider 1 molecule from patent US6808930B1, “Therapeutic agents” (priority 1997, dated 2004).

In data set [1] the test system is L1210 cells. Kind of data set: Cell surface binding of biotinylated protein, flow cytometry. The note with it: biotinylated MAL. Also on record: species or system murine. How it is done: MAL, human α-lactalbumin (HLA) and immunoglobulin G were biotinylated according to the manufacturer's instructions or labelled with ^125I with the lactoperoxidase method. Proteins were dissolved in PBSA-T buffer (30 mM Na2HPO4, 120 mM NaCl, pH 7.4, with 0.1% NaAzid, 0.05% Tween-20) and 25 μl of protein (25 μg) was incubated with 2 μl of ^125([…]), 2 μl of lactoperoxidase (2.5 mg/ml) and 2 μl of H2O2 (diluted 1:2000 in PBS) for 2 min at room temperature. The reaction was stopped by the addition of 500 μl of PBSA-T. The labelled protein was purified on a PD-10 column. 500 μl fractions in PBSA-T were eluted and fractions containing radioactivity were stored at […]. […] L1210, A549 and HRTEC cells (3×10^6 cells/ml, 50 μl) were incubated in suspension with 50 μl of biotinylated MAL, ALA or BSA for various times at 37° C. The cells were washed with PBS by centrifugation at 320×g for 10 min and the supernatant was discarded. FITC-conjugated streptavidin (diluted 1:50 in PBS) was added and the cells were incubated for 30 min at room temperature. The cells were washed by centrifugation as above, suspended in 300 μl PBS and the surface fluorescence was analysed by flow cytometry on a Coulter Epics Profile II flow cytometer (Coulter Inc.), equipped with a 488 nm argon laser. Green fluorescence was detected with a 525 nm band pass filter. The PMT voltage was initially set to 1250 V and adjusted for day to day variation using calibration with Immunobeads (Coulter).
On the technique in general: Flow cytometry measures light scatter and fluorescence of single cells or particles in a stream.

Data set [2] concerns digitonin-permeabilized cells. Kind of data set: DNA fragmentation in digitonin-permeabilized cells. It is filed as cell-based. The note with it: 0.4 mg/ml. As to the method: Briefly, 1×10^6 cells were incubated in 100 μl of nuclear transport buffer (NTB), with the addition of 1 μg/ml each of leupeptin, aprotinin, antipain, and 40 μg/ml of digitonin for 5 min at room temperature and washed by centrifugation at 320×g for 10 min in NTB. Biotinylated protein (5 μl, 5 mg/ml) was added to the cells in a total volume of 100 μl NTB supplemented with phosphcreatin, creatine phosphokinase and ATP, incubated for various time at RT and washed twice in NTB by centrifugation at 320×g for 10 min. The cells were treated with 0.2% Triton-X100 in NTB for 6 min and washed finally 1:100 dilution of fluorescein-conjugated strepatvidin was added for 30 min at RT and washed. The cells were then inspected by fluorescence microscopy in a Nikon Microphot (Japan) microscope or by laser scanning confocal microscopy in a BioRad MRC-1024 instrument.
When adding 0.4 mg/ml of MAL to digitonin-permeabilized cells, HMW DNA fragments were formed after 1 hour and oligonucleosomal fragments after 2 hours. […] IgG was not detected in isolated nuclei or in nuclei of digitonin-permabilized cells (FIG. 7a).

Data set [3] concerns L1210 cells. Kind of data set: Cell viability by trypan blue exclusion. The class given is cell-based, murine. The note with it: L1210 cell line. How it is done:
(§1) Remaining cells were analysed for DNA fragmentation.

Data set [4] deals with A549 cells. Nature of the data set: Cell viability by trypan blue exclusion. The class given is cell-based, human. As to the method:
as §1

In data set [5] the test system is HRTEC cells. Nature of the data set: Cell viability by trypan blue exclusion. The class given is cell-based, human. As to the method: as §1
Data set [6] has as its system A549 cells. Nature of the data set: Cell surface binding of 125I-labelled protein, cell associated radioactivity. Also on record: species or system human. To be noted: 30 min exposure to 2×10^6 cpm of 125I-labelled protein. How it is done:
(§2) Cell surface binding of MAL was also quantitated as the cell associated radioactivity during the first 30 min after addition of ^125I-labelled MAL to the cells (FIG. 2B). […]

Data set [7] deals with HRTEC cells. The description is as above. The note with it: 30 min exposure to 2×10^6 cpm of 125I-labelled protein. Also on record: species or system human. How it is done: as §2
In data set [8] the test system is L1210 cells. Kind of data set: DNA fragmentation by gel electrophoresis and FIGE. It is filed as cell-based, murine. As to the method: as §1
The test system of data set [9] is HRTEC cells. Nature of the data set: Nuclear uptake of biotinylated protein, confocal microscopy. It is filed as cell-based, human. The note with it: biotinylated MAL (1 mg/ml elsewhere in the source). As to the method:
[…] Sander et al., Immunol. Rev. (1991) 119: 65-92) at room temperature, washed in PBS, and permeabilized with 0.1% saponin in PBS. FITC conjugated streptavidin (diluted 1:100 in 0.1% saponin) was added and the cells were incubated for 30 min at room temperature. The cells were washed twice in PBS-saponin and once in PBS, mounted on a glass slide and analysed in a Bio-Rad 1024 laser scanning confocal equipment (Bio Rad Laboratories, Hemel-Hempstead, UK) attached to a Nikon Diaphot inverted microscope.

[10] abbreviates: stated for the three cell types.

B1: MAL: protein complex from human milk casein containing oligomeric forms of α-lactalbumin; the apoptosis-inducing fraction (protein, UniProt P00709 20-142, looked up)
Alpha-lactalbumin: KQFTKCELSQLLKDIDGYGGIALPELICTMFHTSGYDTQAIVENNESTEYGLFQISNKLWCKSSQVPQSRNICDISCDKFLDDDITDDIMCAKKILDIKGIDYWLAHKALCTEKLEQWLCEKL
modifications: oligomeric form from milk casein
notes: protein complex from human milk casein containing oligomeric forms of α-lactalbumin; the apoptosis-inducing fraction
Take B1: in the data set on L1210 cells [1] (30 min, first of three cell types (L1210 by order)), the “fluorescence intensity of cell surface binding” value is reported as 12.1 times that of the streptavidin control. Moreover, in the data set with L1210 cells [1] (setting [10]), the “time after which cell surface binding reached a maximum” value was determined as 30 min and the “time after which cell surface binding was detected” value turned out to be 10 min. In [2], the “time after which HMW DNA fragments were formed” value stood at 1 h and the “time after which oligonucleosomal fragments were formed” value came to 2 h. Besides, the “sensitivity to MAL-induced apoptosis” value in the data set with L1210 cells [3] is reported as “highly sensitive”. Also, the “sensitivity to MAL-induced apoptosis” value in the data set with A549 cells [4] is recorded as “intermediately sensitive”. The cell viability result in the data set with HRTEC cells [5] (HRTEC cells, 24 h incubation with up to 4 mg/ml) is given as “remained fully viable”. For the same molecule, the “sensitivity to MAL-induced apoptosis” value with HRTEC cells [5] (non-transformed cultures (HRTEC), within the tested concentration range) is listed as “resistant”. In addition, the “cell surface binding, cell associated radioactivity” value in the data set on A549 cells [6] is given as 20 000 cpm. Also, the “cell surface binding, cell associated radioactivity” value in the data set with HRTEC cells [7] is reported as 18 000 cpm. For the same molecule, the “time at which fragmentation of DNA was first seen” value in the data set with L1210 cells [8] (0.3 mg/ml) stood at 6 h. For the same molecule, in the data set on L1210 cells [8] (0.5 mg/ml), the “incubation time after which HMW DNA fragments were observed” value stood at 30 min and the “incubation time after which oligonucleosome length DNA fragments were detected” value is “three”. Further, in the data set with L1210 cells [8] (0.75 mg/ml), the “time at which fragmentation of DNA was seen” value was 2 h. Moreover, the nuclear uptake result in the data set with HRTEC cells [9] is recorded as “Nuclear uptake was not observed”.
